Reference: IntAct's records for PubMed 23376921

B1: Transmembrane protein 59 (Homo sapiens), Q9BXS4 (parent)
chain: MAAPKGSLWVRTQLGLPPLLLLTMALAGGSGTASAEAFDSVLGDTASCHRACQLTYPLHTYPKEEELYACQRGCRLFSICQFVDDGIDLNRTKLECESACTEAYSQSDEQYACHLGCQNQLPFAELRQEQLMSLMPKMHLLFPLTLVRSFWSDMMDSAQSFITSSWTFYLQADDGKIVIFQSKPEIQYAPHLEQEPTNLRESSLSKMSYLQMRNSQAHRNFLEDGESDGFLRCLSLNSGWILTTTLVLSVMVLLWICCATVATAVEQYVPSEKLSIYGDLEFMNEQKLNRYPASSLVVVRSKTEDHEEAGPLPTKVNLAHSEI
B2: Transmembrane protein 59 (Homo sapiens), Q9BXS4 (parent)
chain: B1 chain
partner: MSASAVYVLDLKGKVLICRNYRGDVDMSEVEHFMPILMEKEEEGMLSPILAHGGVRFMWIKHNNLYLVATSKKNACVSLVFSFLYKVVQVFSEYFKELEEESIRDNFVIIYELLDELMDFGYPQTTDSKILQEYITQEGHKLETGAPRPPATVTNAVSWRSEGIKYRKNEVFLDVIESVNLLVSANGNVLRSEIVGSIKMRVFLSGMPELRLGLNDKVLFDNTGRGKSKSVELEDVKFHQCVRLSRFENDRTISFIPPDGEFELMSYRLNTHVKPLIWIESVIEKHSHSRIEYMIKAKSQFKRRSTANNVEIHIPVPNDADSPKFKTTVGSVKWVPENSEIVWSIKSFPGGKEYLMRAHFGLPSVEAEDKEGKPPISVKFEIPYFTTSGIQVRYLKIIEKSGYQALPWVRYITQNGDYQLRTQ

Variants of: B1
Details: with ATG16L1, Q676U5
ATG16L1, Q676U5, sequence (Q676U5 whole entry): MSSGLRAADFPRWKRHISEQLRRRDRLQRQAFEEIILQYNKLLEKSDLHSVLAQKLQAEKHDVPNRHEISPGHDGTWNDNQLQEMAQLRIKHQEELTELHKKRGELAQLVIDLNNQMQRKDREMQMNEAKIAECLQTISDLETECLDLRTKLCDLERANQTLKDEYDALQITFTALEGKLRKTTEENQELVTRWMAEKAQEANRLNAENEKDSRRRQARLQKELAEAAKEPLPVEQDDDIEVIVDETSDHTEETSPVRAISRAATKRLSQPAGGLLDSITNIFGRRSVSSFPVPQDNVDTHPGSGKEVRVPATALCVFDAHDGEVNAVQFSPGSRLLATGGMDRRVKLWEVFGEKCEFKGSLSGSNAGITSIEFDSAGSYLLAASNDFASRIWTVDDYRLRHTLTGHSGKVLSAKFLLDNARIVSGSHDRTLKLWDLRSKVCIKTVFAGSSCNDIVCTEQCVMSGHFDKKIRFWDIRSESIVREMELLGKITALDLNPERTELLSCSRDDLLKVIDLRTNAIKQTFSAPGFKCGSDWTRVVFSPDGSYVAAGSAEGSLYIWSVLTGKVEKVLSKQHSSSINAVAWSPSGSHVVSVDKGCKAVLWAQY

| Variant | effect of a mutation on the interaction |
| --- | --- |
| Y268A;E272A;Y277A;L280A | disrupting interaction |

Variants of: B1
Details: with ATG16L1, Q676U5
Remark: another data set of the same source

| Variant | effect of a mutation on the interaction |
| --- | --- |
| Y268A;E272A;Y277A;L280A | disrupting interaction |

Variants of: B1
Details: with ATG16L1, Q676U5
Remark: another data set of the same source

| Variant | effect of a mutation on the interaction |
| --- | --- |
| Y268A;E272A;Y277A;L280A | disrupting interaction |

Variants of: B1
Details: with ATG16L1, Q676U5
Remark: another data set of the same source

| Variant | effect of a mutation on the interaction |
| --- | --- |
| Y268A;E272A;Y277A;L280A | disrupting interaction |

Variants of: B1
Details: with ATG16L1, Q676U5
Remark: another data set of the same source

| Variant | effect of a mutation on the interaction |
| --- | --- |
| Y268A;E272A;Y277A;L280A | disrupting interaction |

Variants of: B1
Details: with ap2m1_human AP2M1, Q96CW1
ap2m1_human AP2M1, Q96CW1, sequence (Q96CW1 whole entry): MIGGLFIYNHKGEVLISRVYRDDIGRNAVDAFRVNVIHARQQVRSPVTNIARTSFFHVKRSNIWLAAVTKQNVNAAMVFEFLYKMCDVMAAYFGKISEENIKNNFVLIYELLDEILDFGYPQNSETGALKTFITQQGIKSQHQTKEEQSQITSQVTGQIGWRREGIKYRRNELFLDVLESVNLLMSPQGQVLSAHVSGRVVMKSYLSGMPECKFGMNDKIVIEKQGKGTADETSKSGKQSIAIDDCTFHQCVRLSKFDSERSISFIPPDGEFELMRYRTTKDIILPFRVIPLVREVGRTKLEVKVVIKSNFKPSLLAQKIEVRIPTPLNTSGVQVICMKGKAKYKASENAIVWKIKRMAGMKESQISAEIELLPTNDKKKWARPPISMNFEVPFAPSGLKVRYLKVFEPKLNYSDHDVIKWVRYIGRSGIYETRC

| Variant | effect of a mutation on the interaction |
| --- | --- |
| Y268A;E272A;Y277A;L280A | disrupting interaction |

Variants of: B1
Details: with mlp3a_human MAP1LC3A

| Variant | effect of a mutation on the interaction |
| --- | --- |
| Y268A;E272A;Y277A;L280A | disrupting interaction |

Variants of: B1
Details: with ATG16L1, Q676U5
Remark: another data set of the same source

| Variant | effect of a mutation on the interaction |
| --- | --- |
| Y277A;L280A | disrupting interaction |

Variants of: B2
Details: with ap1m1_human AP1M1, Q9BXS5

| Variant | effect of a mutation on the interaction |
| --- | --- |
| Y268A;E272A;Y277A;L280A | disrupting interaction |
